One experiment deals with CIAP. Description: Interaction of ARTS with CIAP. Type of experiment: binding.
For experiment [1], the system named is COS-7 cells. Description: Immunofluorescence of ARTS and XIAP localization in COS-7 cells. Type of experiment: cell-based, African Green Monkey. As to conditions: apoptotic cells over-expressing ARTS versus not over-expressing. The protocol:
Cells were fixed with 4% paraformaldehyde in PBS for 20 min at room temperature, washed with PBS, permeabilized with 0.5% Triton-X in PBS for 5 min, and incubated with primary antibodies for 2 hours at room temperature (rabbit polyclonal anti-ARTS (1:20,000; Sigma), monoclonal anti-ARTS, and/or monoclonal anti-XIAP (1:500; used in subsequent Examples). Cells were washed three times with PBS/0.1% Triton-X and incubated with FITC conjugated anti-mouse and Rhodamin^TX-conjugated anti-rabbit secondary antibodies (Jackson). Images were analyzed using a confocal laser microscope (Zeiss LSM 510). Mitochondria were visualized with MitoTracker® Red CMXRos (Molecular Probes/Invitrogen).
For caspase inhibition, we added […] of BOC-Asp(Ome)CH2F (Enzyme Systems Products) one hour prior to addition of the apoptotic agents.

A further experiment has as its system K562 cells. Description: Caspase 3 activity assay in ARTS-transfected K562 cells. It is filed as cell-based. The protocol:
(§1) K562 and HL-60 cells were grown in RPMI 1640 medium. A549, COS-7 cells were grown in Dulbecco's modified Eagle medium (DMEM) with 4.5 grams/liter (g/L) D-glucose. All cells were grown at 37° C. in a 5% CO2 atmosphere. All media were supplemented with 10% fetal calf serum (FCS), penicillin (100 U/ml), streptomycin (100 micrograms (μg)/ml) and […] millimolar [mM]) (Biological Industries, Israel). pEF1-AU5 and pEF1-AU5-ARTS constructs were used for all ARTS transient transfection experiments. An AU5 tag was attached to the N' terminus of ARTS as described in ([…] et al, Nat Cell Biol 2: 915-921, 2000). The […] construct was generated by replacing three amino acids ([…]) at the GTP binding site, using site-directed mutagenesis (QuickChangeTM, Stratagene) with the primer: [NT] No: 1). COS-7, K562 and HL-60 cells were transiently transfected using electroporation (EasyjectTM plus-Equibio). A549 cells were transiently transfected using lipofectaminTM (Invitrogen) according to the manufacturer's protocol. The following apoptotic agents were used: TGF-beta (10 ng/ml) for 24 hours in medium containing 1% FCS; […] etoposide for 2 or 16 hours (Sigma); staurosporine (STS) ([…]) for 0-3 hours (Sigma); and arabinoside-c (ara-C, cytosar) (Pharmacia) at […] for 4 hours. In the case of transiently transfected cells, agents were added forty hours after transfections. […]

Another experiment deals with HL-60 cells. Put plainly: Caspase 3 activity assay in ARTS-transfected HL-60 cells. Type of experiment: cell-based. The protocol: as §1
In experiment [2] the test system is COS-7 cells. Description: Active caspase 3 immunofluorescence staining in ARTS-transfected COS-7 cells. Type of experiment: cell-based, African Green Monkey. The protocol: as §1
Experiment [3] deals with COS-7 cells. Description: Apoptosis assays (TUNEL, anti-H2A.X) in COS-7 cells. Type of experiment: cell-based, African Green Monkey. As to conditions: COS-7 cells stably transfected with an ARTS construct. The protocol: Apoptotic cells were detected using the anti-H2A.X antibody (Upstate; Paull, et al., 2000) or TUNEL. For TUNEL assays, COS-7 cells were transiently transfected with AU5-ARTS, AU5-ARTSΔC, AU5-ARTSmGTP and AU5-H5. Twenty-four hours after transfection, the cells were treated with staurosporine (STS) ([…]) for 1 or 3 hours, then fixed and permeabilized. Apoptosis levels were determined using the TUNEL. In situ™ cell death detection TMR kit (Roche) according to the manufacturer's protocol. All slides were coded and experiments were performed in a blind manner.
(§2) Stably transfected COS-7 pE-ARTS cells were generated using the pEF1-IRES vector (Hobbs S et al, Biochem Biophys Res Commun 252: 368-372, 1998). The construct contains an EF-1 promoter followed by a multi cloning site, an EMC (Encephalomyocarditis virus) internal ribosome entry sites (IRES), and a puromycin resistance gene. AU5-tagged ARTS was inserted into the XhoI site downstream of the EF-1 promoter. The construct was stably transfected into COS-7 cells. The cells were maintained in medium containing 4 μg/ml puromycin.

Another experiment relates to XIAP. Put plainly: XIAP protein levels by Western blot in COS-7 cells. Type of experiment: cell-based, African Green Monkey. The protocol: Protein extracts were prepared with lysis buffer (150 mM NaCl, 50 mM Tris-HCl (pH 8), 1% NP-40, 0.5% deoxycholate acid) with protease inhibitors. Lysates containing equal amounts of total protein were pre-cleared overnight with 1 mg mouse IgG (Sigma) coupled with protein A/G-Sepharose mix (Amersham Biosciences) and the beads centrifuged. Supernatants were immuno-precipitated using 5 μl of anti-ARTS antibody for 4 h, anti-XIAP antibody, rabbit anti-myc antibody, or mouse IgG (negative control). Protein A/G Sepharose beads were added for 1 hour and washed four times with PBS. Antibodies against XIAP (as above), Myc (Santa Cruz), or anti-ARTS (NT) antibodies directed against the common N′ terminus of ARTS and H5 (ProSci Incorporated) were used for Western blot.
as §2
Cells were treated for 2 hours with […] of the proteasome inhibitor (MG132, Calbiochem) prior to induction of apoptotis.

The next experiment has as its system A549 cells. Put plainly: Caspase 3 activity assay in ARTS-transfected A549 cells. It is filed as cell-based. The protocol:
as §1

B1: AU5-ARTS (other)
chain: MIKRFLEDTTDDGELSKFVKDFSGNASCHPPEAKTWASRPQVPEPRPQAPDLYDDDLEFRPPSRPQSSDNQQYFCAPAPLSPSARPRSPWGKLDPYDSSEDDKEYVGFATLPNQVHRKSVKKGFDFTLMVAGESGLGKSTLVNSLFLTDLYRDRKLLGAEERIMQTVEITKHAVDIEEKGVRLRLTIVDTPGFGDAVNNTECWKPVAEYIDQQFEQYFRDESGLNRKNIQDNRVHCCLYFISPFGHGYGPSLRLLAPPGAVKGTGQEHQGQGCH
notes: Expressed in transfected COS-7 cells and used as lysate or stained in cells; also called pEF1-AU5-ARTS; AU5-tagged ARTS; not shown: AU5 tag attached to the N' terminus of ARTS
In the case of B1, the “interaction with CIAP” value in the experiment on CIAP is given as “interact with ARTS”. The “XIAP staining in the nucleus” value in the experiment on COS-7 cells [1] is reported as “significantly higher levels in the nucleus”. Further, the caspase-3 activity entry in the experiment on K562 cells (expression of ARTS in the absence of pro-apoptotic stimuli, K562 cells) is on record as “little or no effect”; in the experiment with K562 cells (over-expression of ARTS, K562 cells treated with ara-C), “increased caspase-3 activity”; in the experiment with HL-60 cells (expression of ARTS in the absence of pro-apoptotic stimuli, HL-60 cells) it was “increased caspase-3 activity”; in the experiment on HL-60 cells (over-expression of ARTS, HL-60 cells treated with ara-C), “increased caspase-3 activity”; in the experiment on COS-7 cells [2] (expression of ARTS in the absence of pro-apoptotic stimuli, COS-7 cells), “little or no effect”; with COS-7 cells [2] (over-expression of ARTS, COS-7 cells treated with etoposide) it was “increased caspase-3 activity”. For the same molecule, the caspase-3 activity entry in the experiment with A549 cells (expression of ARTS in the absence of pro-apoptotic stimuli, A549 cells) is recorded as “little or no effect”; with A549 cells (over-expression of ARTS, A549 cells treated with TGF-β), “increased caspase-3 activity”. Also, in the experiment with COS-7 cells [3], the “apoptotic marker H2A.X” value is given as “high levels of the apoptotic marker H2A.X”. Besides, the “amount of XIAP” value in the experiment on XIAP (COS-7 cells transiently transfected with pcDNA3-myc-XIAP and AU5-ARTS versus XIAP alone) is “significantly decreased”. In addition, the “levels of XIAP” value with XIAP (COS-7 pE-ARTS cells stably expressing high levels of ARTS) is “significantly reduced levels of XIAP”. For the same molecule, in the experiment with XIAP (transiently transfected COS-7 cells treated with 1 mM staurosporin (STS) for 0, 2 or 5 hours), the XIAP protein levels result is listed as “reduced XIAP protein levels”.

These data come from patent US20050227302A1, “Induction of apoptosis via ARTS-IAP complexes” (priority 2004, published 2005).
